Assay results published in the nanobody polyreactivity screen of Harvey et al. (2022).

test: yeast display, Sf9 membrane polyspecificity reagent, FACS + sequencing; frameworks hold sequencing errors
Method in brief: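 Synthetic nanobody libraries on Saccharomyces cerevisiae BJ5465 were galactose-induced for 36–48 hours, stained 1 hour at 4 °C with 10% biotinylated, detergent-solubilized Sf9 membrane reagent and enriched on streptavidin microbeads. FACS then separated cells into low and high (top ~1%) gates by anti-HA (expression) and streptavidin (reagent binding) fluorescence. Genes were colony-PCR amplified, MiSeq 2 × 250 sequenced and CDR-length filtered. A clone's polyreactivity label is that of its gate of origin.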

Sequence	polyreactivity (PSR sort gate)
QVQLVESGGGLVQAGGSLRLSSAASGSRNAMGWSRQAPGKEREFVAAITWNGGSTYYADSVKGRFTISRDNAKNTVYLQMNSLKPEDTAVYYCNKREVFIYGTTYDYWGQGTQVTVSS	low polyreactivity
QVQLVESGGGLVQAGGSLRLSCAASGRIFVYNVMGWYRQAPGKERELVAAISWGTGSTYADSVKGRFTISRDNAKNTVYLQMNSLKPEDTAVYYCAADWLSTKNDYWGQGTQVTVSS	low polyreactivity
QVQLVESGGGLVQAGGSLRLSCAASGRIFPYKAMGWYRPAPGKERELVAAITSSGGSTYYADSVKGRFTISRDNAKNTVYLQMNSLKPEDTAVYYCNKDIERYVRIYDSWGQGTQVTVSS	low polyreactivity
QVQLVESGGGLVQAGGSLRLSCAASGRIFRYYVMGWYRQAPGKETELVAAISRSGGTTYYADSVKGRFTISRDNAKNTVYLQMNSLKPEDTAVYYCAAVYGRDPGDYWGQGTQVTVSS	high polyreactivity
QVQLVESGGGLVQAGGSLRLSCAASGIIFNFNAMGWYSQAPGKERELVAGISYGGGRTYYADSVKGRFTISRDNAINTVYLQMNSLKPEDTAFYYCNKYGLGIYRGYYWGQGTQVTVSS	high polyreactivity
QVQLVESGGGLVQAGGSLRLSCEDSGFIFRVYAMGWYLQAPGKERELVAAINSGGSTNYADSVKGRFTISRDNAKNTVYLQMNSLKPEDTAVYYCAARVKTSYRYLRTYNYCGQGTQVTVSS	high polyreactivity
QVQLVESGGGLVQAGGSLRLSCAASGFIFGINAMGWYRQAPGKERELVATITSGGGTNYADSVKGRFTISRDNAKNTVYLQMNSLKPEDTAVYYCAKAPDTQTSWSRQEGNYWGQGTQVTVSS	low polyreactivity
QVQLVESGGGLVQAGGSLRLSCAASGFIFKRYAMGWYRQAPGKERELVAAITLSGGDTYYADSVKGRFTISRDNAKNTVYLQMNSLKPEDTAVYYCNAPYIGENYYWGQGTQVTVSS	high polyreactivity
QVQLVESGGGLVQAGGSLRLSCAASGYIFGYYVMGWYRQAPGKERELVAAISGRGGRTYYADSVKGRFTISRDNAKNTVYLQMNSLKPEDTAVYYCAAADLPGTMYYWGQGTQVTVSS	high polyreactivity
QVHLVESCGALVHAGGSLRLSCAASGSIFRGNAMGWYRQAPWKERELVAAITGSGGNTYYADSVKGRFTISRDNAKNTVYLQMNSLKPEDTAVYYCNADGWNTYIGPRRYSYDYWGQGTQVTISS	low polyreactivity
QVQLVESGGGLVQAGGSLRLSCSASGFIFGTNTMGWYRQAPGKEWELVAAITSVGSTNYADSVKGRFTISRDNAKNTVYLQMNSLKPEDTAVYYCPATLYYQYGGDYWGQGTQVTVSS	low polyreactivity
QVQHVESGGGLVQAGGSHRLSSAASGSTFIPNAMRWYRQAPGKERELVAAISGSGGRTYYADSVKGRFTISRDNAKNTVYLQMNSLKPEDTAVYYCAASGTSRSRKSYYWGQGTQVTVSS	high polyreactivity
QVQLVESGGGLVQAGGSLRLSCAASGFTFQRYTMGWYRQAPGKERELVAAITRSGGRTYYADSVKGRFTISRDNAKNTVYLQMNSLKPEDTAVYYCAVDYRTRGDYWGQGTQVTVSS	high polyreactivity
QVQLVESGGGLVQAGGSLRLTCAASVFTWSYAMVWDRHATGKERELVATISDGVSTNYSDSVKGRFTISRDNAKNSVYLQMNSLKPEDTAVYYCAVRVSGPRGYDYEYWGQGTQVTVSS	low polyreactivity
QVQLVESLGGLVQAGGSLRLSCAASGRTFPGYAMGWYRQAPGKERELVAAISYTGTRTYYADSVKGRFTISRDNAKNTVYLQMNSLKPEDTAVYFCAAGVQRVSGSYGYWGQGTQVTVSS	high polyreactivity
QVQLVESGGGLVQAGGSLRLSCAASGSTFRYYAMGWYRQAPGKERELVAAISTGGTTYYADSVKGRFTISRENAKNTVYLQMNSLKPEDTAVYYCNTVRLFDYGYWGQGTQVTVSS	low polyreactivity
QVQLVESGGGLVQAGGSLRLSCAASGFTFDVNAMGWYRQAPGKERELVASITGSGSRTDYADSVKGRFTISRDNAKNTVYLQMNSLKPEDTAVYYCATDQRLGYQDDDYWGQGTQVTVSS	low polyreactivity
QVQLVESGGGLVQAGGSLRLSCAASGSIFTGNAMGWYRQAPGKERELVAAITRTGSTNYADSVKGRFTISRDNAKNTVYLQMNSLKPEDTAVYYCATDRTFTISNYDYWGQGTQVTVSS	low polyreactivity
QVQLVESGGGLVQAGGSLRLSCAASGITFYPYAMGWYRQAPGTERELVAAITGSGGRTYYADSVKGRFTISRDNAKNTVYLQMNSLKPEDTAVYYCAKVARYPDMGYWGQGTQVTVSS	high polyreactivity
QVQLVESGGGLVQAGGSLRLSCAASGFIFRRNAMGWYRQAPGKERELVAAISAGGTSTYYADSVKGRFTISRDNAKNTVYLQMNSLKPEDTAVYYCNKAYYYDAEYDYWGQGTQVTVSS	high polyreactivity
QVPLVESGGGLVQAGGSLRISCAACGIIFFPYAMGWYRQAPGKEREFVAAITSRGGSTYYADSVKGRFTISRDNAKNTVYLQMNSLKPEDTAVYFCAADHLGRARGPWRYNYWGQGTQVTVSS	low polyreactivity
QVQLVESGGGLVQAGGSLRLSCAASGSTFTRYAMGWYRQAPGKERELVAAINWSGTSTYYADSVKGRFTISRDNAKNTVYLQMNSLKPEDTAVYYCNKGYLVRPGDYWGQGTQVTVSS	high polyreactivity

Sequence	polyreactivity (PSR sort gate)
QVQLVESGGGLVQAGGSLRLSCAASGGTFFGYAMGWYRQAPGKERELVAAISGSGGRTYYADSVKARFTISRDNAKNTVYLQMNSLKPEDTAVYYCAADATHETYYPFYYWGQGTQVTVSS	high polyreactivity
QVQLVESGGGLVQARGSLRLSCAASGSIFRKYAMGWYRQAPGKERELVAVITTDGSTNYADSVKGRFTISRDNAKNTVYLQMNSLKPEDTAVYYCNAVRSSIGTDNVYWGLGTQVTVSS	low polyreactivity
QVHLVESGGGLFQAGGSLRLSCAASGRTFYYYGMGWYRQAPGKERELVASITNGGNTNYADSVKGRFTISRDNAKNTVYLQMNSLKPEDTAVYYCANDVPYWRPVVRYDYWGQGTQVTVSS	low polyreactivity
QVQLVESGGRLVQAGGSLRLSCAASGRIFALNAMGWYRQAPGKERELVAAITWGGGSTYYADSVKGRFTISRDNAKNTVYLQMNSLKPVDTAVYYCAARYVFWPYWISGDSWGQGTQVTVSS	low polyreactivity
QVQLVESGGGLVQAGGSLRLSCAASGIIFAYYAMGWYRQAPGKERELVATITSGSNTNYADSVKGRFTISRDNAQNTVYLQMNSLKPEDTAVYYWGQGTQVTVSS	low polyreactivity
QVQLVESGGGLVQAGGSLRLSCAASGIIFKRNAMGWYRQAPGKERELVAAITYRGTSTYYADSVKGRFTISRDNAKNTVYLQMNSLKPEDTAVYYCNAVGRSSGSAFNYWGQGTQVTVSS	high polyreactivity
QVQLVESGGGLVQAGGSLRLSCAASGFIFWYYAMGWYRQSPGTERELVAGITSGGSTNYADSVKGRFTISRDNAKNTVYLQMNSLKPEDTAVYYCAAAPYGGFGRGYDYWGQGTQVTVSS	high polyreactivity
QVQLVESGGGLVQAGGSLRLSCDASGYIFSANAMGWYRQSPGKERELVAAITSSGGSTYYADSVKGRFTISRDNAKNTVYLQMNSLKPEDTAVYYCAAYSIYYRSGYPSRYRYYYWGQGTQVTVSS	high polyreactivity
QVQLVESGGGLVQAGGSLRLSCAASGYIFNKYVMGWYRQAPGKERELVAAISASGGSTYYADSVKGRFTISRDNAKNTVYLQMNSLKPEDTAVYYCAATLYRRMDYWGQGTEVTVSS	high polyreactivity
QVQLVESGGGLVQAGGSLRLSCAASGSTFYRYAMGWYRQAPGKEREFVAAISRSGGSTYYADSVKGRFTISRDNAKNTVYLQMNSLKPEDTAVYYCNKYYWYPYGRAHYYGYWGQGTQVTVSS	high polyreactivity
QVQLVESGGGLVQAGGSLRLSCAASGSIFYVYAMGWYRQAPGKERELVAAITARVTSTYYADSVKGRFTISRDNAKNTVYLQMNRLKPEDTADYYCAARTSYKTGYRKYDYWGQGTQVTVSS	low polyreactivity
QVQLVESGGGLVQAGGSLRLRCAASGSTFSTNAMGWYSQAPGKERELVASITRSGGSTYYADSVKGRFTISRDNAKNTFYLQMTSLKPEDTAVYYCNADGYYDYDYGFWGQGTQVTVSS	low polyreactivity
QVQLVESGGGLVQAGGSLRLSCAASGRIISHYAMGWYRQAPGKDRELVAAISRSGVSTYYADSVKGRFTISRDNAKNTVYLQMNSLKPEDTAVYYCNRRYDRGPYDYWGQGTQVTVSS	low polyreactivity
QVQLVESGGGLVQAGGSLRLSCAASGSTFVGYAMGWYRQAPGKERELVAAITTDGGSTYYADSVKVRFTISRDNAKNTVYLQMNSLKPEDTAVYYCAADHRVYPRDDWDSPDEFGYWGQGTQVTVSS	low polyreactivity
QVQLVESGGGLDQAGGSLRLSCAASGSTLGYNAMGWYRQAPGKERVLVAAISRSGGITYYADSVKGRFTISRDTAKNTVYLQMNSLKPEDTAVYYCNAVDRTRYRPGNDYDYWGQGTQVTVSS	high polyreactivity
QVQLVESGGGLVQAGGSLRLSCAASGSTLIIYAMGWYRQAPGKERELVATISWSGGNTYYADSVKGRFTISRDNAKYTVYLQMNSLKPEDTAVYYCAARWYYYPLLYDYWGQGTQVTVSS	low polyreactivity
QVQLVESGGGLVQAGGTLRISCAASGRIYAGYVMGWYRQAPRKERELVAAISGSGAYTYYADSVKGRFTISRDYAKNTVYLQMNRLKPEDSAVYYCAADKPGIFSRFDYWGQGTQVSVSS	low polyreactivity
QVQLVESGGGLVQAGGSLRLSCAASGGTFSSNAMGWYRQAPGKERELVAAITWSGGSTYYADSVKGRFTISRDNAKNTVYLQMNSLKPEDTAVYYCNARNQWRTVGKYDYWGQGTQVTVSS	low polyreactivity
QVQLVESGGGLVQAGGSLRLSCAASGRTLVDYGMVWYRQAPGKERELVAVITSGGSTYYADSVKGRFTISRDNAKNTVYLQLNSLIQEDTAVYYCAADNCYRGYHSPYDYWGQGTQVTVSS	low polyreactivity
QVQLVESGGGLVQAGGSLRLSCAASGRTFFHYAMGGSRQAPGKERELVAAMTSRGDSTYYADSVKGRFTISRDNAKNTVYLQMNSLKPAETAVYYCAVYSHRRNMNYWGQGTQVTVSS	high polyreactivity
QVQLVESGGGLVQAGGSLRLSCAASGFIFWHYTMGWYRQAPGKERELVAASTWTGGSTYYADSVKGRFTISRDNEKNTVYLQMNSLKPEETAVYYCNADYPGEGITYGYWGQGTQVTLSS	low polyreactivity
